One assay addresses T1, Human VEGF165 (Homo sapiens, UniProt P15692).
T1 construct: purchased Biosource
T1 sequence (P15692 27-191 isoform P15692-4): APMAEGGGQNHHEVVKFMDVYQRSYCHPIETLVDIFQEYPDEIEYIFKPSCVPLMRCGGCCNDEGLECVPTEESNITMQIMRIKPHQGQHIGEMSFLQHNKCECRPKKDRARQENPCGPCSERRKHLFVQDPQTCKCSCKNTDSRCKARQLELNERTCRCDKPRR
Nature of the assay: BIAcore binding analysis of VEGF-binding peptides (surface plasmon resonance). To be noted: 1:1 Langmuir binding; 1000 RU VEGF, 850 RU TNFα. As for the experimental part: FIG. 3 provides results of a BIACORE binding analysis of VEGF binding peptides. Binding curves were obtained as described in the Examples. Data were fit to a two state reaction model with conformation change: Analyte (A) binds to ligand (B) to form complex AB.
In this Example, experiments conducted to assess the affinities of the peptides for VEGF are described. Affinities of the peptides for VEGF were measured using a BIAcore™-3000 surface plasmon resonance system (Biacore). A CM5 sensor chip was conditioned with 50 mM NaOH, 0.1% HCl, 0.1% SDS, and 0.08% H3PO4, and activated for covalent coupling of VEGF using N-ethyl-N′-(3-dimethylaminopropyl)-carbodiimide hydrochloride (EDC) and N-hydroxysuccinimide (NHS) according to the supplier's instructions (Biacore). Human VEGF165 (Biosource) was diluted to 5 μg/ml in 20 mM sodium acetate, pH 4.8 and injected at a flow rate of 2 μl/min to achieve approximately 1000 to 6000 response units (RU) of coupled protein. TNF-alpha (human TNF-alpha, Biosource, Int., Camarillo, Calif.) was similarly coupled to the CM5 sensor chip to approximately 850 to 3500 RU in the reference lane. A solution of 1 M ethanolamine was injected as a blocking agent. In some experiments, an additional solution of EDC and NHS were injected to improve baseline stability and a solution of 1 M ethanolamine injected as a blocking agent. The reference lane was activated with EDC and NHS and blocked with ethanolamine.
Peptides were synthesized using standard FMOC chemistry, purified by reverse phase HPLC to >95% purity (SynPep), and stored at 10 mg/mL in DMSO. For kinetic measurements, twofold serial diluted peptides in HBS-EP buffer, 0.01 M HEPES pH 7.4, 0.15 M NaCl, 3 mM EDTA, 0.005% Surfactant P20 (Biacore), were injected at 25° C. at a flow rate of 20 μL/min. Two-fold serial diluted DMSO samples and buffer samples were also injected for background subtraction. Kinetic parameters were calculated using BIAevaluation 3.1 software.

The target in another assay is T2, VegF (Homo sapiens, UniProt P15692).
T2 construct: purchased PeproTech
T2 sequence (P15692 27-191 isoform P15692-4): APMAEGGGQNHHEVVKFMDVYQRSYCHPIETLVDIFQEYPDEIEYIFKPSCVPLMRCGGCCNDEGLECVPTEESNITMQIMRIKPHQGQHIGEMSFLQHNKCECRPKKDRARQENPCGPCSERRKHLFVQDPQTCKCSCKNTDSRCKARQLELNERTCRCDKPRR
Nature of the assay: Electrochemiluminescence (BioVeris) competition with Anti-VegF antibody for binding to VegF. To be noted: ECL labeled Anti-VegF antibody, biotinylated VegF; for competition with Anti-VegF antibody for binding to VegF: 2 h room temperature. The procedure: FIG. 19 provides a graph showing results from a competition analysis of 2BBlck81 versus anti-VegF antibody binding to VegF.
Briefly, after cleavage, the pH of the cleaved sample was adjusted to 5.5, the sample was then loaded onto the column (equilibrated with 25 mM MES pH 5.5). The free 2BBIck81 was washed through the column using 25 mM sodium acetate pH 5.0 while the BCE103 catalytic core remained bound to the resin. The 2BBIck81 fraction was concentrated by ultrafiltration and analyzed using an electrochemiluminescence (ECL) based binding assay (BioVeris). The Anti-VegF antibody (Santa Cruz) and VegF (PeproTech) were labeled with the electrochemiluminescent dye and biotin, respectively, as described by the manufacturer (BioVeris). All materials were in Dulbecco's PBS (Mediatech) supplemented with 0.1% TWEEN®-80. An initial dilution series of Anti-VegF antibody (125, 250 and 500 ng/ml) and VegF (100, 150, 200 and 250 ng/ml) were tested in the binding assay to determine the concentrations of each that would give a robust ECL signal.
For testing 2BBIck81 binding, 50 μL of 500 ng/ml ECL labeled Anti-VegF antibody, 50 μL of 250 ng/ml biotinylated VegF and 100 μL 2BBIck81 (series of 12.5, 15, 31.25, 62.5, 125, 250 or 500 ng/ml) were incubated at room temperature for 2 h with shaking. Then, 50 μL of 0.2 mg/ml streptavidin coated beads were added and the reaction was incubated at room temperature for 30 minutes. The ECL signal was measured using a BioVeris M8/384 Analyzer as described by the manufacturer (BioVeris).

The subject of assay [1] is skin of individuals of skin type III and IV. Description: Reduction of skin pigmentation induced by UVA exposure (MPPD), clinical tanning grade. The assay is classed as in vivo, human. The settings on record: for Day 13 Avg. Tanning Grade / Day 14 Avg. Tanning Grade / Day 15 Avg. Tanning Grade: 1.0 MPPD UVA daily on days 12-14, 0-10 scale; for Change on Day 13 (tanning grade minus day 12 grade) / Change on Day 14 (tanning grade minus day 12 grade) / Change on Day 15 (tanning grade minus day 12 grade): UVA-induced pigmentation; for Day 12 Avg. Tanning Grade: after 11 days of patches, before UVA exposure, 0-10 scale. As for the experimental part: In this Example, experiments conducted to test the ability of BBI-AV to reduce skin pigmentation induced by UVA exposure are described. This study was conducted with 13 individuals of skin type III and IV based on The Fitzpatrick skin classification. On day one, each subject's minimal persistent pigment darkening dose (MPPD) was determined on the lower back of each individual, in an area that is equal in color to the area that received test material application. […] Subjects returned to the clinic 34 hours after the MPPD exposures were complete. The test sites were scored for pigment darkening using the following scale: • - no visible pigment darkening • ? questionable response; unclear • + slight darkening over essentially the whole irradiation field • ++ definite darkening over the whole irradiation field The site treated with the lowest dose of UVA producing a score of ‘+’ represented that subject's MPPD. On day two, sites of uniform color were marked on the lower back. The clinical grader assessed the degree of tan at each site using a 0-10 scale (0=very slight tan and 10=very deep tanning.) Then the Test material (0.1% and 0.9% of BBI-AV) and the vehicle control applied under occlusion. A volume of 150 μl was dosed onto each patch. The occlusive patches used hte these experiments were the same as described in Example 2. As described in Example 2, the patches remained in place until the next day, when a clinician removed them. This patching procedure was repeated for 11 days. On the days 12-14, the clinician removed the patches that were applied the previous day and the site was gently wiped to remove residual test material. The clinical grader assessed the degree of tan at each site using a 0-10 scale (0=no tan and 10=very deep tanning.) After grading was complete, each site was exposed to 1.0 MPPD of UVA as described for Day 1. New patches were applied after exposures were completed. On day 15, patches were removed and the degree of tan at each site was assessed using a 0-10 scale (0=no tan and 10=very deep tanning). […] In this table, the tanning grade results are shown as the results obtained for day 12 subtracted from grades of days 13, 14 and 15.

Assay [2] has as its system skin of subjects with Fitzpatrick skin types III or IV. Description: Skin lightening study, occlusive patches on lower back, clinical tanning grade. The assay is classed as in vivo, human. The procedure:
In this Example, experiments conducted to assess the skin lightening capabilities of BBI-AV are described. Thirteen subjects, ages 18-65, with Fitzpatrick skin types III or IV participated in this 22-day study. The Fitzpatrick skin classification is based on the skin's unprotected response to the first 30 to 45 minutes of sun exposure following a winter season without sun exposure. The categories of skin types are:
Five test sites of uniform color were marked on the lower back of each subject. The clinical grader assessed the degree of tan at each site using a 0-10 scale (0=very slight tan and 10=very deep tanning.). Each subject was pre-treated with one concentration of Molecule A, two concentrations of Molecule B, vehicle control buffer, and an untreated site for 11 consecutive days. Approximately 150 uL of test materials (0.1% and 0.9% of BBI-AV) and vehicle control were dosed onto the lower back using occlusive patches. Occlusive patches consisted of a Webril® (non-woven cotton) pad held to the skin with a porous, hypoallergenic tape (e.g., SCANPORE® or MICROPORE®). A strip of BLENDERM® tape equal in width of the cotton pad covered the outside of the tape to provide the occlusive patch. Patches remained in place until a clinician removed them the next day. This patching procedure was repeated for 11 days.
On day 12, the clinician removed the patches that were applied the previous day and the site was gently wiped to remove residual test material. The clinical grader assessed the degree of tan at each site using a […].

Bridge positions count the residues as written; N and C are the ends. Peptide text beside a SMILES is read from it.

For orientation: Kd means the equilibrium constant for the complex coming apart. Higher therefore signals weaker binding. In the case of `CC[C@H](C)[C@@H]1NC(=O)[C@H](CC(=O)O)NC(=O)[C@@H](NC(=O)[C@H](CC(N)=O)NC(=O)[C@@H]2CCCN2C(=O)[C@H](CCC(=O)O)NC(=O)[C@@H](N)C(C)C)CSSC[C@@H](C(=O)N[C@@H](Cc2ccccc2)C(=O)N[C@@H](CCC(=O)O)C(=O)N[C@@H](CCCNC(=N)N)C(=O)N[C@@H](CC(C)C)C(N)=O)NC(=O)[C@H](CCC(=O)O)NC(=O)[C@H](Cc2c[nH]c3ccccc23)NC(=O)[C@H](CCC(=O)O)NC(=O)[C@H](Cc2c[nH]c3ccccc23)NC(=O)[C@H](CCSC)NC(=O)[C@H](C(C)C)NC(=O)[C@H](Cc2c[nH]cn2)NC1=O` [v114, reference compound] (H-VEPNCDIHVMWEWECFERL-NH2; disulfide 5-15; N-terminus and C-terminus assumed), at Human VEGF165, the Kd was determined as 223 nM and the kd1 was determined as 0.167 s⁻¹.

B1: 2BBIck81: BBI with the grafted CK37281 peptide in the chymotrypsin loop (protein)
chain: DDESSKPCCDQCACTKSNPPQCRCSDMRLNSCHSACKSCACYNLYGWTCFCVDITDFCYEPCKPSEDDKEN
As to B1, in the assay with VegF, the “competition for VegF binding compared with synthesized CK37281 peptide” value is recorded as “competed for VegF binding better than the synthesized CK37281 peptide itself” and the “competition with Anti-VegF antibody for binding to VegF” value is reported as “competed with the Anti-VegF antibody for binding to VegF at micromolar concentrations”.

B2: BBI-AV: BBI sequences having anti-VEGF (AV) sequences incorporated; primary active of the personal care compositions (protein)
chain: DDESSKPCCDQCACYNLYGWTCRCSDMRLNSCHSACKSCICALSYPAQCFCVDLTDFCEPCKPSEDDKEN
For B2, in assay [1] (0.1% BBI-AV), the “Day 13 Avg. Tanning Grade” value is reported as 5.08, the “Day 14 Avg. Tanning Grade” value turned out to be 5.13, the “Day 15 Avg. Tanning Grade” value is given as 5.5 and the “Change on Day 13 (tanning grade minus day 12 grade)” value was found to be 0.32. Moreover, in assay [1] (0.1% BBI-AV), the “Change on Day 14 (tanning grade minus day 12 grade)” value is given as 0.37, the “Change on Day 15 (tanning grade minus day 12 grade)” value was 0.74 and the “Day 12 Avg. Tanning Grade” value is on record as 4.76. Moreover, in assay [1] (0.1% and 0.9% of BBI-AV under occlusion, 1.0 MPPD of UVA on days 12-14), the UVA induced pigmentation result is “UVA induced pigmentation is decreased”. Further, in assay [1] (0.9% BBI-AV), the “Day 13 Avg. Tanning Grade” value is 4.92, the “Day 14 Avg. Tanning Grade” value came to 5.04, the “Day 15 Avg. Tanning Grade” value amounted to 5.5 and the “Change on Day 13 (tanning grade minus day 12 grade)” value was determined as 0.23. Further, in assay [1] (0.9% BBI-AV), the “Change on Day 14 (tanning grade minus day 12 grade)” value was 0.35, the “Change on Day 15 (tanning grade minus day 12 grade)” value worked out at 0.81 and the “Day 12 Avg. Tanning Grade” value was determined as 4.69. Further, the “change in tanning grade versus vehicle control” value in assay [2] (0.1% and 0.9% of BBI-AV, 150 uL under occlusive patches for 11 days, graded day 12) was “greater change in the tanning grade”. For the same molecule, the “Change in Average Tanning Grade” value in assay [2] (0.9% BBI-AV, Day 11 versus Day 1) was −0.27. In addition, the “Average Day 1 Tanning Grade” value in assay [2] (0.9% BBI-AV, occlusive patch on lower back, baseline before treatment, clinical grader scale) amounted to 4.96. In assay [2] (0.9% BBI-AV, occlusive patches for 11 consecutive days, clinical grader scale), the “Average Day 11 Tanning Grade” value turned out to be 4.69.

B3: 1BBIck81: BBI with the grafted CK37281 peptide in the trypsin loop (protein)
chain: DDESSKPCCDQCACYNLYGWTCRCSDMRLNSCHSACKSCICALSYPAQCFCVDITDFCYEPCKPSEDDKEN
For the molecule B3, the “competition with Anti-VegF antibody for binding to VegF” value with VegF is on record as “also competed with the Anti-VegF antibody”.
